The record followed here is article PMC9150817.

In data set [1] the target is T1, Hfq wild type (recombinant, full-length, non-tagged) (Escherichia coli, UniProt P0A6X3 1-102). As to the kind of experiment: 2D-PAGE/immunoblot of reconstituted complex.
Data set [2] has as its target T1, Hfq wild type (recombinant, …). In words: 2D-PAGE/immunoblot of reconstituted complex. The source holds these as a separate data set.

Like-named read-outs stand apart in the source and are kept apart here.

T1 sequence (P0A6X3 whole entry): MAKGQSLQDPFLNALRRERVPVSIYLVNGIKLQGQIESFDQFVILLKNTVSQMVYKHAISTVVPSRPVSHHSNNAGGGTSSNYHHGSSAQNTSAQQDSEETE

For AAAAAAAAAAAAAAAAAAAA (ssRNA) [(rA)20], in data set [1], the binding result is “binds”.

In the case of UUUUUUUUUUUUUUUUUUUU (ssRNA) [(U)20], the binding result in data set [1] is “binds”. For AAAAA (ssRNA) [(rA)5], the binding result in data set [2] is “binds”.
